Data from PMC4946999 (ACS chemical biology, 2016).

Experiments:
[1] = molecular target: FITC-labeled PIASγ peptide derived from the essential PIASγ LXXLL motif; experiment: fluorescence polarisation
SEC = molecular target: the molecule itself; experiment: SEC

Row | Kd [1] | Molecule | stoichiometry N (SEC)
1 | 3.5 µM | Nurr1 ligand-binding domain (LBD) (from UniProt P43354 328-598) (domain or fragment) | 
2 |  | Nurr1 ligand-binding domain (LBD) (domain or fragment) MVKEVVRTDSLKGRRGRLPSKPKSPQEPSPPSPPVSLISALVRAHVDSNPAMTSLDYSRFQANPDYQMSGDDTQHIQQFYDLLTGSMEIIRGWAEKIPGFADLPKADQDLLFESAFLELFVLRLAYRSNPVEGKLIFCNGVVLHRLQCVRGFGEWIDSIVEFSSNLQNMNIDISAFSCIAALAMVTERHGLKEPKRVEELQNKIVNCLKDHVTFNNGGLNRPNYLSKLLGKLPELRTLCTQGLQRIFYLKLEDLVPPPAIIDKLFLDTLPF | 2
